Experimental data taken from article PMC11681865, “Oligomerization of protein arginine methyltransferase 1 and its functional impact on substrate arginine methylation” (The Journal of Biological Chemistry, 2024).

Tests used:
PRMT1-WT = molecular target: T1, PRMT1-WT (Homo sapiens, UniProt Q99873); assay: Radiometric filter-binding assay, PRMT1-WT activity in presence of inactive PRMT1 mutants; type: biochemical; conditions: 0.05 μM PRMT1-WT, mutant 20 min on ice, 50 μM peptide, 2 μM [3H]-SAM and 48 μM SAM, 30 min
T1 construct: His-MBP (N, cleaved yes); made in house; host or cells: Escherichia coli BL21 (DE3) RIPL
T1 sequence (Q99873 11-353 isoform Q99873-3): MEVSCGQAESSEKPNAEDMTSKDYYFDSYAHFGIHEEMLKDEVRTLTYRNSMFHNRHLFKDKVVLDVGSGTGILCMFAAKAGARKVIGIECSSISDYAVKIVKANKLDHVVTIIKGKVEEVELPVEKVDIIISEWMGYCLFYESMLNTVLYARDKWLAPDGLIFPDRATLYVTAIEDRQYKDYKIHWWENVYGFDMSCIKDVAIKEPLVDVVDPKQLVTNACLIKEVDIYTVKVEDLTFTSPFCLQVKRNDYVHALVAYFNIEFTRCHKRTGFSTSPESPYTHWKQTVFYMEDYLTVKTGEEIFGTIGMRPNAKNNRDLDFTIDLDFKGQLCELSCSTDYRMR
Excerpt: (§1) Constant PRMT1-WT concentration and various PRMT1-E153Q concentrations were maintained in the aqueous buffer prior to adding peptide and SAM to initiate the reaction. The reaction was quenched with isopropanol. The reaction mixture was loaded on the P81 filter paper that was air dried, washed, and immersed in scintillation cocktail for scintillation counting. […] To eliminate this possibility, we created a double mutant (PRMT1-H293G/E153Q) to further abolish PRMT1 activity. […] We then tested PRMT1-WT activity in the presence of various concentrations of PRMT1-H293G/E153Q (Fig. 7, G–L). […] These increasing trends were the same as that of PRMT1-E153Q. […] Again, similar to Figure 6, D–F, the increase in kcat started to slow down a bit at >1 μM concentrations of PRMT1-E153Q or PRMT1-H293G/E153Q, which is likely due to substrate overconsumption under these conditions.
Figure 7 Arginine methylation of various peptides by high-order oligomeric PRMT1-WT and PRMT1 mutants. Filter-binding assay was used to characterize the methyltransferase activity. Firstly, 0.05 μM of PRMT1 was incubated with various concentrations of PRMT1-E153Q or PRMT1-H293G/E153Q on ice for 20 min. Afterward, 2 μM radioactive [3H]-SAM and 48 μM SAM and 50 μM of indicated peptides was added and incubated for 30 min before quenching the reaction with 100% isopropanol. […]

R4 peptide = assay: Radiometric methyltransferase activity of PRMT1 mutants on R4 peptide; type: biochemical; conditions: various mutant concentrations, 50 μM peptide, 2 μM [3H]-SAM and 48 μM SAM, 30 min
Excerpt: as §1
To perform PRMT1 and PRMT1 mutants (PRMT1-E153Q and PRMT1-H293G/E153Q) concentration-dependent measurement, each reaction contained various concentration of PRMT1 or PRMT1 mutant, 50 μM of peptide, and 50 μM SAM (48 μM cold and […] ^3H-SAM). The reaction buffer consisted of 50 mM Hepes pH 8.0, 10 mM NaCl, 0.5 mM EDTA, and 0.5 mM DTT. The reaction was incubated at room temperature for 30 min after being initiated with ^3H-SAM SAM. An equal amount of 100% isopropanol to the total reaction volume was used to quench the reaction. […]

“PRMT1-H293G/E153Q: double mutant created to further abolish PRMT1 activity” was tested, and the “kcat of PRMT1-WT (CPM / PRMT1-WT concentration) in presence of mutant” value (PRMT1-WT) was “increased as a function of PRMT1-H293G/E153Q concentration”, the “methylated product amount (CPM) of PRMT1-WT in presence of mutant” value (PRMT1-WT) was “gradually went up as the concentrations of the double mutant increased” and the “methyltransferase activity of PRMT1 mutant” value (R4 peptide) was “even weaker than PRMT1-E153Q, greatly diminished to near background level”.
